{"source": "patent US6147204", "about": "“Nucleic acid ligand complexes” (NeXstar Pharmaceuticals, Inc.)", "key": {"[1]": {"molecular_target": "T1, VEGF (vascular endothelial growth factor) (UniProt P15692-4 P15692-4:27-191)", "T1 sequence (P15692 other isoform, or with tags, fused parts or gaps)": "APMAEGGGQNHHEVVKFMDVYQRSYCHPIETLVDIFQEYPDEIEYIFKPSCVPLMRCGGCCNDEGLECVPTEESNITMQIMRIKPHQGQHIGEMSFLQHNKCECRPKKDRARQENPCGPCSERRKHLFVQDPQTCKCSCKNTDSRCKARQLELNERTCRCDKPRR", "test": "competition; ED50, competition ELISA against biotin-labeled VEGF ligand on immobilized VEGF; printed 10^-9 M", "conditions": "chain copies: 2"}, "[2]": {"molecular_target": "T1, VEGF (vascular endothelial growth …)", "test": "competition; apparent ED50, competition ELISA; printed 10^-7 M", "conditions": "chain copies: 2", "experimental": "(§1) NX278-Liposome Complex was prepared by incubating NX-278 (1 mg) (FIG. 1N; SEQ ID NO: 19) with of a mixture of DSPC:cholesterol (50 mg) in 10 mM phosphate (pH 7.4) buffer containing 9% sucrose and sonicated for 15–30 min using a probe-type sonicator until opalescent solution was obtained. The control Nucleic Acid Ligand-Liposome Complex containing a sequence scrambled analog of ligand NX-278 (scNX278) (FIG. 1W; SEQ ID NO:28) was prepared in the same manner. The size of Liposome particles (typically […]), determined in a particle analyzer (Leeds & Northrup Model Microtrack UPA 150, Horsham, Pa.) was similar to those obtained in the absence of the Nucleic Acid Ligand."}, "[3]": {"molecular_target": "T1, VEGF (vascular endothelial growth …)", "test": "cell_activity; inhibition of HUVEC proliferation with 10 ng/ml VEGF; KS cells (KSY-1) IC50 about 100 nM", "conditions": "chain copies: 2", "experimental": "The effects of NX278-liposome, scNX278-liposome and NX213 on the proliferation of human umbilical vein endothelial cells (HUVEC) and Kaposi's Sarcoma (KS) cells in tissue culture were examined. HUVECs were grown in the presence of VEGF (10 ng/ml) in IMDM:Ham's F12 (1:1) medium containing 10% fetal calf serum (FCS) and heparin (45 μg/ml). Cells were plated in 24-well gelatin-coated plates at a density of 20,000 cells per well on day zero and treated with the above ligands at concentrations between 0.1 nM to 1 μM on days 1, 2, and 3 (replacing the media along with the ligands). Cell count was performed on day 4. KS cell line KSY-1 was plated in 24-well gelatin coated plates at a density of 7,500–10,000 cells per well on day zero in medium containing RPMI 1640 supplemented with 2% FCS, L-glutamine, penicillin and streptomycin. Nucleic Acid Ligands were added at concentrations between 0.1 nM to 1 μM in fresh medium on day 1, 2, and 3 and the cell count was performed on day 4."}, "[4]": {"molecular_target": "T2, bFGF (basic fibroblast growth factor) (UniProt P09038 P09038:143-288)", "T2 sequence (P09038 143-288, one chain of several)": "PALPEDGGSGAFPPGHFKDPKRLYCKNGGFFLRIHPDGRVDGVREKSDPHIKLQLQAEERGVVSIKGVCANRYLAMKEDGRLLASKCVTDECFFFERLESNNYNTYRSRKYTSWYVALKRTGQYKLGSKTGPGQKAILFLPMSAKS", "test": "binding affinity stated as 1 nM", "conditions": "blunt-ended hairpin, Tm 68 C"}, "[5]": {"molecular_target": "T2, bFGF (basic fibroblast growth factor)", "test": "5'-32P binding assay; same affinity as unconjugated 225T3", "conditions": "label: 5'-32P; hairpin", "experimental": "Preparation and Functional Properties of PEG Conjugated and Cholesterol-Derivatized Nucleic Acid Ligands A PEG 3400 conjugate of a Nucleic Acid Ligand retains the binding affinity of the non-conjugated molecule The ability of a bFGF ligand/PEG-3400 conjugate to bind bFGF was tested. Molecule 225T3 (SEQ ID NO: 10), a high affinity DNA ligand to bFGF, was chosen for conjugation with PEG via a primary amine-NHS coupling reaction. […] Ligand 225T3 was modified with a 3'-amino-modifier C7 CPG (Glen Research, Sterling, Va.) using standard DNA synthesis methods and will be referred to as 225T3N (SEQ ID NO:11). 225T3N was reacted with the N-hydroxysuccinimidyl (NHS) active ester of PEG (avg. MW 3400) in 20% (v/v) […] 80% (v/v) 0.5 M sodium bicarbonate buffered at pH 8.5. The resulting conjugate, 225T3N-PEG-3400 (SEQ ID NO: 14), was purified from the free DNA on a 12% polyacrylimide/7 M urea gel. The conjugate was 5' end-labeled with ^32P and a binding assay was performed."}, "[6]": {"molecular_target": "T2, bFGF (basic fibroblast growth factor)", "test": "5'-32P binding assay; identical to 225T3", "conditions": "label: 5'-32P; hairpin"}, "[7]": {"molecular_target": "T1, VEGF (vascular endothelial growth …)", "test": "1 uM not inhibitory in guinea pig Miles assay", "conditions": "chain copies: 2", "from_the_text": "The ability of NX278-liposome to inhibit the vascular permeability activity of VEGF in vivo was examined."}, "[8]": {"molecular_target": "T1, VEGF (vascular endothelial growth …)", "test": "competition; not an effective competitor up to 2 uM", "conditions": "chain copies: 2", "experimental": "as §1"}}, "data": [{"binder": "TTTTACCCUGAUGGUAGACGCCGGGGUGTTTTT (mixed)", "note": "[NX213]", "values": [{"measurement": "EC50", "setting": "[1]", "result": "~1", "unit": "nM"}]}, {"binder": "TTTTACCCUGAUGGUAGACGCCGGGGUGTTTTT (mixed, 5'-dialkylglycerol (DAG), embedded in DSPC:cholesterol liposome)", "note": "[NX278-liposome]", "values": [{"measurement": "EC50", "setting": "[2]", "result": "~100", "unit": "nM"}, {"measurement": "IC50", "setting": "[3]", "result": "~300", "unit": "nM"}]}, {"binder": "GCGGGGCTACGTACCGGGGCTTTGTAAAACCCCGC (ssDNA)", "note": "[225T3]", "values": [{"measurement": "Kd", "setting": "[4]", "result": 1, "unit": "nM"}]}, {"binder": "GCGGGGCTACGTACCGGGGCTTTGTAAAACCCCGC (ssDNA, 3'-amino modifier C7 coupled to PEG (avg. MW 3400))", "note": "[225T3N-PEG-3400]", "values": [{"measurement": "Kd", "setting": "[5]", "result": 1, "unit": "nM"}]}, {"binder": "GCGGGGCTACGTACCGGGGCTTTGTAAAACCCCGC (ssDNA, 3'-tetraethyleneglycol cholesterol)", "note": "[225T3-Cholesterol]", "values": [{"measurement": "Kd", "setting": "[6]", "result": 1, "unit": "nM"}]}, {"binder": "TTTTGUCGGUACGGAGUGGACCGUCACGTTTTT (mixed, dialkylglycerol (DAG), embedded in DSPC:cholesterol liposome)", "note": "[scNX278-liposome]", "values": [{"measurement": "binding result", "setting": "[7]", "result": "no binding"}, {"measurement": "EC50", "setting": "[8]", "result": "> 2000", "unit": "nM"}]}]}
